Results taken from WO2018007923A2 (dated 2018).
Changes are numbered by the printed parent chain.

Legend:
[1] = target: TTR-V122I (fibrils and oligomeric aggregates) (UniProt P02766 21-147); test: cell-based or functional assay
pH4.0-treated TTR [2] = target: T1, pH4.0-treated TTR (human, UniProt P02766 21-147); test: ELISA, pH4-TTR captured by anti-His
pH4.0-treated TTR [3] = target: T1, pH4.0-treated TTR; test: summary of Table 4; ELISA on pH4-TTR
pH4.0-treated TTR [4] = target: T2, pH4.0-treated TTR (human, UniProt P02766 21-147); test: ELISA, pH4-TTR captured by anti-His; remark: listed apart in the source
pH4.0-treated TTR [5] = target: T2, pH4.0-treated TTR; test: summary of Table 4; ELISA on pH4-TTR; remark: listed apart in the source

B1: mouse monoclonal antibody 14G8 (antibody, V domains shown)
VH: EVKLVESGGGLVQPGGSLKLSCAASGFTFSSYTMSWVRQTPEKRLELVAEINNSGDTTYYPDTVKGRFTISRDNAKNTLYLQMSSLKSEDTAMYYCARHYYYGGGYGGWFFDVWGTGTTVTVSS
VL: DIVMTQAAPSVPVTPGESVSISCRSNKSLLHSNGNTYLYWFLQRPGQSPQLLIYRVSNLASGVPDRFSGSGSGTAFTLRISRVEAEDVGVYYCMQHLEYPLTFGAGTKLELKR
- IC50 of inhibition of TTR-V122I fibrillation (ThT fluorescence) [1]: 28 µg/mL

B2: mouse monoclonal antibody 6C1 (antibody, V domains shown)
VH: EVQLVESGGGLVQPGGSLKLSCAASGFTFSNYYMSWVRQTPEKRLEWVAYISIDGNNIYHPDSVKGRFTISRDNAKNTLYLQMSSLKSEDTAMYYCARDSDYGYFDVWGTGTTVTVSS
VL: DVLMTQTPLSLPVSLGDQASISCRSSQSIVHSNGNTYLEWYLQKRGQSPKLLIYKVSKRFSGVPDRFSGSGSGTDFILKISRVEAEDLGVYYCFQGSHVPLTFGGGTKLELK
notes: also called m6C1; mis-TTR mAb 6C1
- Kd (pH4.0-treated TTR [2]): 16 nM
- Kd (pH4.0-treated TTR [3]): 14.5 nM

B3: mouse monoclonal antibody 9D5 (antibody, V domains shown)
VH: B1 VH with N52S, I70F
VL: DIVMTQAAPSVPVTPGESVSISCRSSKSLLHSNGNTYLYWFLQRPGQSPQLLIYRVSNLASGVPDRFSGSGSGTAFTLRISRVEAEDVGVYYCMQHLEYPLTFGAGTKLELK
- Kd (pH4.0-treated TTR [4]): 282 nM
- Kd (pH4.0-treated TTR [5]): 257 nM
